Source: patent US20210403538A1 (published 2021)

B1: rEBOV-542 (antibody, V domains shown)
VH: EVQLVESGGGLVQPGGSLRLSCAASGFTVSNNYMSWVRQAPGKGLEWVSLIYTSVTTYYADSVKGRFTISRDNSKNTLYLQMNSLRAEDTAVYYCARELGNWSYGVSYWGRGTLVTVSS
VL: SYELTQPPSVSVSPGQTARITCSGDALPKQYAYWYQQKPGQAPVLVIYKDSERPSGIPERFSGSSSGTTVTLTISGVQAEDGADYYCQSADGSGTYPVVFGGGTKLTVL
B2: rEBOV-520 LALA (antibody, V domains shown)
VH: QVQLQESGPGLGKPSETLSLSCTVSGASIRGYFWNWIRQPPGKGLEWIGYIHSTGSTNYNPSLKSRVTISVDTSKNQVSLNVNSVTAADTAVYFCARGAWNVATVYYYYGMDVWGQGTLVTVSS
VL: EIVLTQSPGTLSLSPGERATLSCRASQSVSSSYFAWYQQKPGQAPRLLISGTSTRAPGIPDRFSGSGSGTDFTLTISRLEPEDFAVYFCQQYGNSLYTFGQGTKLEIK
B3: rEBOV-548 (antibody, V domains shown)
VH: QVQVEESGGGVVQPGGSLRLSCAASGFMFSNYGMHWVRQAPGKGLEWMAFIRYDDSKKFYADSVKGRFTISRDNSKNTLYLQMNSLRAEDTALYYCAKELLQVYTSAWGEGHSYYYALDVWGLGTAVTVSS
VL: DIQMTQSPSSVSASVGDRVTITCRASQDISNWLAWYQQKPGKAPELLIYTASILQSGVSSRFSGSGSGTDFTLTISSLQPEDSATYYCQQGKSFPYTFGQGTKLEIK
B4: EBOV-515 (antibody, V domains shown)
VH: QVQLQESGPGLVKPSQTLSLTCTVSGGSINSAGYYWTWIRQHPGKGLEWIGYIDYTGRTYYNPSLESRVIISIDTSKNHFSLRLTSVSAADTAVYYCARESSWVSELGRDNWGQGTLVTVSS
VL: EIVMTQSPATLPVSPGEGATLSCRASQSVFTNLAWYQQKPGQAPRLLIYDASTRATGIPARFSGSGSGTEFTLTISSLQSEDFAVYYCQQYNNWPRTYGQGTRVEVK

Columns and labels:
EBOV GP [change] [1] = target: T1, EBOV GP [change] (Zaire ebolavirus (EBOV), strain Makona); assay: BLI
BDBV GP [change] = BDBV GP [change] (Bundibugyo ebolavirus (BDBV), strain …); assay: ELISA
EBOV GP [change] [2] = target: T1, EBOV GP [change]; assay: ELISA

| Binder | Kd (EBOV GP [change] [1]) | EC50 (BDBV GP [change]) | EC50 (EBOV GP [change] [2]) |
| --- | --- | --- | --- |
| B1 | 260 pM | 8 ng/mL | 11 ng/mL |
| B2 | 2120 pM | 45 ng/mL | 18 ng/mL |
| B3 | 41 pM | 7 ng/mL | 6 ng/mL |
| B4 | 530 pM | – | – |
